Results taken from patent publication US20230374116A1.
Where two headings read alike, the source gives them in different places.

Key:
Beta RBD-Fc [1] = target: Beta RBD-Fc
Beta RBD-Fc [2] = target: Beta RBD-Fc; remark: listed apart in the source

B1: 3_C5 (VHH)
VHH: QVQLVESGGGLVQAGGSLRLSCAASGRTLSMRRMSWFRQAPGKEREFVATINWSSGSIYVTDSVKDRFTISRDNAENTVHLQMNMLKPEDTAVYSCAVQVDIGGYLDGYDYWGQGTQVTVSS
With B1 the Kd (Beta RBD-Fc [1]) was 0.895 nM, the T1/2 (Beta RBD-Fc [1]) was 14 min and the koff (Beta RBD-Fc [1]) was 0.0008 s⁻¹. The kon (Beta RBD-Fc [1]) was 900000 M⁻¹ s⁻¹.

B2: NbSA_D10 (VHH)
VHH: QVQLVESGGGLVQVGGSLRLSCAVSGRTSSDYSVGWFRRAQGKEREFVAALAWTVGATHYGDSVKGRFTVSRDNAKNMVYLQIDSLKPEDTGVYYCAGRYGAGLGFTERIYDYWGQGTQVTVSS
In the case of B2, the T1/2 (Beta RBD-Fc [2]) is reported as 18 min, the koff (Beta RBD-Fc [2]) is reported as 0.0006 s⁻¹ and the kon (Beta RBD-Fc [2]) is reported as 640000 M⁻¹ s⁻¹. For the same binder, the Kd (Beta RBD) was 0.936 nM.

B3: 8_G11 (VHH)
VHH: QVQLVESGGGLVQAGGSLRLSCAASGRTITEYTIGWFRQAPGKEREFVTLISKSTDSTWDADSVKGRFTIARDYAKNTVYLQMNSLKPEDTAVYYCAAGSFYGRDSDAGGYDYWGQGTQVTVSS
Work on B3 yielded a Kd (Beta RBD-Fc [1]) of 0.443 nM, a T1/2 (Beta RBD-Fc [1]) of 20 min and a koff (Beta RBD-Fc [1]) of 0.00057 s⁻¹. It also gave a kon (Beta RBD-Fc [1]) of 1.3e+06 M⁻¹ s⁻¹.

B4: 12_F11 (VHH)
VHH: QVQLVESGGGLVQAGGSLRLSCAASGGAFSTSAMGWFRQAPGKEREFVAVIGWRGVRTYYADSVKGRFTIARDNPQNRVYLEMSSLKSDDTGVYFCAASDGNYGLPWAHFEYDFWGQGIQVTSS
B4 showed a Kd (Beta RBD-Fc [1]) of 0.236 nM, a T1/2 (Beta RBD-Fc [1]) of 12 min and a koff (Beta RBD-Fc [1]) of 0.00096 s⁻¹. The kon (Beta RBD-Fc [1]) was 4.1e+06 M⁻¹ s⁻¹.

B5: NbSA_A10 (VHH)
VHH: QVQLVESGGGLVQAGDSLRLSCAASGRTFSTTRMAWFRQPPGKEREFVAAIFLNTGTTYYADPVKDRFAISRDNAKNTVYLQMNSLKPEDTAVYYCAAGRFSAAPLTQSTAFESWGQGTQVTVSA
In the case of B5, the Kd (Beta RBD) is reported as 0.03 nM.
